The source of these data is patent publication US20030145350A1, “Method for increasing the content of fatty acids in plants and micro-organisms” (priority 2000, published 2003).

Test [1] addresses T1, Cuphea wrightii KAS IIIa (β-ketoacyl ACP synthase IIIa), recombinant wild-type, GenBank U15935 (Cuphea wrightii, UniProt P49244).
T1 construct: His6 (N); made in house; host or cells: E. coli BL21(DE3)pLys, pET 15b vector
T1 sequence (P49244 68-400 limits assumed): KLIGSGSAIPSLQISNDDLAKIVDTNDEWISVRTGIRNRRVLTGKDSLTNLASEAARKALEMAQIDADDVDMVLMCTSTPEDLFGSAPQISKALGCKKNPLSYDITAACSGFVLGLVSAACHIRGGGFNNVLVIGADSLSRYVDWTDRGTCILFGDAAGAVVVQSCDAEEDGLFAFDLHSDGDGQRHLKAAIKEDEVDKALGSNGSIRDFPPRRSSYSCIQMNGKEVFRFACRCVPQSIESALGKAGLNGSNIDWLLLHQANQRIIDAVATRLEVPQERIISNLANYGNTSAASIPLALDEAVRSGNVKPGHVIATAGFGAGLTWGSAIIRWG
The test is described as follows: Inhibition of recombinant wild-type KAS IIIa by acyl ACPs and acyl CoAs ([1-14C] acetate incorporation into acetoacetyl ACP; Lineweaver-Burk). The test is classed as biochemical. On the procedure:
(§1) Wild-type KAS III and KAS IIIa mutants were expressed with a His6-tag at the N-terminus in E. coli strain BL21(DE3)pLys (Novagen, Madison, USA) and purified by nickel affinity chromatography. Purity of the synthesised KAS IIIs was evaluated by SDS-PAGE. The KAS III concentration was determined by the method of Bradford (M. M. Bradford (1976), Anal. Biochem. 72, p. 248-254).
(§2) The activity of KAS IIIa was analysed by the incorporation of radioactive acetate from [1-^14C] acetyl CoA into acetoacetyl ACP (Brück et al. (1996), Planta 198, p. 271-278). The reaction mix (50 μl) contained 100 mM sodium phosphate, pH 7.6, 10 μM [1-^14C] acetyl CoA, 20 μM malonyl ACP and 2 ng of the recombinant KAS IIIa or the KAS IIIa mutant, respectively. The reaction was initiated by adding the enzyme and was performed for a period of 5 minutes at 30° C.
(§3) In the inhibition studies of the wild-type KAS IIIa the used conditions provided for saturation with respect to the substrates acetyl CoA and […]. As regards the inhibitors non-radioactive acyl ACPs (C2-C16) or acyl CoAs (C3-C12) were added at varying concentrations. The resulting data were analysed by the method of Lineweaver-Burk. The inhibition studies of the KAS IIIa mutants with acyl ACPs were performed with 10 μM non-radioactive dodecanoyl ACP (see FIG. 3).
(§4) The KAS III activity was measured as described above in the presence of varying concentrations of acyl ACP (5-25 μM) or of acyl CoA (10-50 μM).
FIG. 2: Kinetic of the inhibition of wild-type KAS III by dodecanoyl ACP. Double reciprocal plots of the concentration of acetyl CoA (A) and malonyl ACP (B) against the activity of KAS III in the absence (●) and presence of 1 μM (▴), 2.5 μM (▪) and 5 μM (▾) dodecanoyl ACP. The respective substrate partner was maintained at a constant level at 10 μM [1-^14C] acetyl CoA and 20 μM malonyl ACP. The enzyme activity was determined by monitoring the incorporation of [1-^14C] acetate from [1-^14C] acetyl CoA into β-ketobutyryl ACP (n=8).

In test [2] the target is recombinant wild-type Cuphea wrightii β-ketoacyl ACP synthase IIIa (cwKAS IIIa) (Cuphea wrightii). In words: inhibition of KAS IIIa enzyme activity ([1-14C] acetyl CoA incorporation), 5-25 µM acyl ACP, Lineweaver-Burk analysis.
Test [3] relates to Cuphea wrightii KAS IIIa mutant Asn358Asp (N291D in the mature protein). In words: Inhibition of KAS IIIa mutant Asn358Asp by dodecanoyl ACP. Format: biochemical. As for the experimental part:
(§5) Then, three point-mutated KAS IIIs were created by the substitution of asparagine^358 by aspartate, alanine^361 by serine and alanine^362 by proline. The amplification of the overlapping DNA fragments of the KAS III mutants was performed by two separate reactions, which each contained 2 ng K3MK-pGEMT plasmid as template, 2.5 U proof-reading Pfu polymerase, 200 μM dNTPs and 50 pmol of each of the primers in a total volume of 50 μl. Each reaction mix contained a flanking primer (Fse5 or Xho3) and the corresponding mutation primer. […]
as §1
(§6) The activity of KAS IIIa was analysed by the incorporation of radioactive acetate from [1-^14C] acetyl CoA into acetoacetyl ACP (Brück et al. (1996), Planta 198, p. 271-278). […]
(§7) In the inhibition studies of the wild-type KAS IIIa the used conditions provided for saturation with respect to the substrates acetyl CoA and malonyl CoA. […] The resulting data were analysed by the method of Lineweaver-Burk. […]

The subject of test [4] is Cuphea wrightii KAS IIIa mutant Ala361Ser (A294S in the mature protein). The test is described as follows: Inhibition of KAS IIIa mutant Ala361Ser by dodecanoyl ACP. The test is classed as biochemical. On the procedure: as §5, §1, §6, §7
The target in test [5] is Cuphea wrightii KAS IIIa mutant Ala^361Ser (Cuphea wrightii). The test is described as follows: cell-based or functional assay.
Test [6] deals with Cuphea wrightii KAS IIIa mutant Asn^358Asp (Cuphea wrightii). In words: cell-based or functional assay.
Another test addresses T2, wild-type KAS IIIa (Cuphea wrightii, UniProt P49244).
T2 construct: His6 (N); made in house; host or cells: E. coli BL21(DE3)pLys, vector pET15b
T2 sequence (P49244 68-400 limits assumed): T1 sequence (P49244 68-400 limits assumed)
The test is described as follows: Inhibition of wild-type KAS IIIa by acyl ACPs and acyl CoAs ([1-14C] acetyl CoA incorporation into acetoacetyl ACP). Format: biochemical. The note with it: with respect to acetyl CoA or malonyl CoA; Lineweaver-Burk. As for the experimental part: as §2, §3, §4
FIG. 2: Kinetic of the inhibition of wild-type KAS III by dodecanoyl ACP. […] The enzyme activity was determined by monitoring the incorporation of [1-^14C] acetate from [1-^14C] acetyl CoA into β-ketobutyryl ACP (n=8).

Setting [7] is: acyl CoA 10-50 μM, pH 7.6, 30° C., 5 minutes, Lineweaver-Burk, read-out: Ki (acyl CoAs).
[8] abbreviates: in the presence of a saturation concentration (10 μM) of dodecanoyl ACP.

Read-outs that look alike come from different tables or passages of the source.

dodecanoyl ACP, sequence (P0A6A8 2-78): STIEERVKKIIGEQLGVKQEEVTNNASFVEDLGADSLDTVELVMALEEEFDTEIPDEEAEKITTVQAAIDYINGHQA
acyl ACP, chain length 4 carbon atoms, sequence (P0A6A8 2-78): as above
acyl ACP, chain length 16 carbon atoms, sequence (P0A6A8 2-78): as above
acyl ACP, chain length 10 carbon atoms, sequence (P0A6A8 2-78): as above
acyl ACP, chain length 8 carbon atoms, sequence (P0A6A8 2-78): as above
acyl ACP, chain length 2 carbon atoms, sequence (P0A6A8 2-78): as above
acyl ACP, chain length 6 carbon atoms, sequence (P0A6A8 2-78): as above
acyl ACP, chain length 14 carbon atoms, sequence (P0A6A8 2-78): as above

One may read the Ki as the dissociation constant of the complex between target and ligand, obtained from inhibition or displacement. Take `CCC(=O)SCCNC(=O)CCNC(=O)[C@H](O)C(C)(C)COP(=O)(O)OP(=O)(O)OC[C@H]1O[C@@H](n2cnc3c(N)ncnc32)[C@H](O)[C@@H]1OP(=O)(O)O` [acyl CoA C3]: the inhibition constant Ki in test [1] amounted to 20.8 ± 0.51 µM.

As for `CCCC(=O)SCCNC(=O)CCNC(=O)[C@H](O)C(C)(C)COP(=O)(O)OP(=O)(O)OC[C@H]1O[C@@H](n2cnc3c(N)ncnc32)[C@H](O)[C@@H]1OP(=O)(O)O` [acyl CoA C4], the Ki in test [1] is 91.9 ± 0.9 µM. `CCCCCC(=O)SCCNC(=O)CCNC(=O)[C@H](O)C(C)(C)COP(=O)(O)OP(=O)(O)OC[C@H]1O[C@@H](n2cnc3c(N)ncnc32)[C@H](O)[C@@H]1OP(=O)(O)O` [acyl CoA C6]: the Ki in test [1] (setting [7]) worked out at 42.7 ± 0.3 µM. `CCCCCCCC(=O)SCCNC(=O)CCNC(=O)[C@H](O)C(C)(C)COP(=O)(O)OP(=O)(O)OC[C@H]1O[C@@H](n2cnc3c(N)ncnc32)[C@H](O)[C@@H]1OP(=O)(O)O` [acyl CoA C8]: the Ki in test [1] (setting [7]) came out at 24.4 ± 0.6 µM. For `CCCCCCCCCC(=O)SCCNC(=O)CCNC(=O)[C@H](O)C(C)(C)COP(=O)(O)OP(=O)(O)OC[C@H]1O[C@@H](n2cnc3c(N)ncnc32)[C@H](O)[C@@H]1OP(=O)(O)O` [acyl CoA C10], in test [1] (setting [7]), the inhibition constant (Ki) was determined as 12.5 ± 0.6 µM.

As for `CCCCCCCCCCCC(=O)SCCNC(=O)CCNC(=O)[C@H](O)C(C)(C)COP(=O)(O)OP(=O)(O)OC[C@H]1O[C@@H](n2cnc3c(N)ncnc32)[C@H](O)[C@@H]1OP(=O)(O)O` [acyl CoA C12], the inhibition constant (Ki) in test [1] (setting [7]) was 20 ± 0.7 µM.

In the case of acyl ACP, chain length 2 carbon atoms, the Ki in test [2] turned out to be 2.16 µM. As to acyl ACP, chain length 4 carbon atoms, the Ki in test [2] was 2.9 µM. On to acyl ACP, chain length 6 carbon atoms, for which the Ki in test [2] was 8 µM. Regarding acyl ACP, chain length 8 carbon atoms, in test [2], the Ki came to 4.1 µM. On to acyl ACP, chain length 10 carbon atoms, for which the Ki in test [2] was 4.1 µM.

With acyl ACP, chain length 14 carbon atoms, the Ki in test [2] amounted to 4 µM. Take acyl ACP, chain length 16 carbon atoms: in test [2], the Ki was found to be 1.3 µM. For dodecanoyl ACP [listing 1 of 2 here], the “inhibition by acyl ACP (in words)” value in test [3] (10 μM dodecanoyl ACP) and in test [4] (10 μM dodecanoyl ACP) was “almost not at all inhibited” in each case. The initial activity maintained result in test [3] (setting [8]) and in test [4] (setting [8]) was “about 85%” in each case.

With dodecanoyl ACP [listing 2 of 2 here], the initial activity maintained in the presence of a saturation concentration (10 µM) of dodecanoyl ACP in test [5] and in test [6] was 85% throughout. Besides, the Ki in test [2] was 0.4 µM. For the compound dodecanoyl ACP [acyl ACPs 12], the “type of inhibition of KAS IIIa” value with wild-type KAS IIIa is recorded as “not competitive”.
